Patent US5179196A, “Purification of proteins employing CTAP-III fusions” (SRI International, priority 1989, dated 1993)
Like-named read-outs stand apart in the source and are kept apart here.

B1: CTAP-III(Leu21): analog of CTAP-III in which the methionine at position 21 is replaced with leucine (protein, UniProt P02775 44-128, looked up, variant M21L)
Connective tissue-activating …: NLAKGKEESLDSDLYAELRCLCIKTTSGIHPKNIQSLEVIGKGTHCNQVEVIATLKDGRKICLDPDAPRIKKIVQKKLAGDESAD
modifications: Connective tissue-activating peptide III

How the values were obtained:
[1] = Isoelectric point (pI); format: physicochemical
[2] = biological target: T1, thrombin (Homo sapiens, UniProt P00734); conditions: E. coli, cited from earlier work
[3] = biological target: T1, thrombin; experiment: Specific activity of recombinant hirudin (antithrombin activity), applicant's hirudin; format: biochemical
Description: There are a number of activity assays developed to determine the quality of hirudin preparations and for use in quantitating hirudin in various biochemical and pharmacological experiments. Two of these methods have been refined herein and may be used routinely and reproducibly. The first, a chromogenic substrate assay measures the inhibition by hirudin of thrombin's ability to hydrolyze small synthetic peptide substrates. The second, a fibrin-clotting assay, measures the kinetics of clot formation, using either human plasma or purified fibrinogen as the thrombin substrate.
In the chromogenic assay, antithrombin activity is achieved by measuring the inhibition of release of p-nitroaniline from the chromogenic substrate H-D-phenylalanyl-L-pipecolyl-L-arginine-p-nitroanilide dihydrochloride (S-2238, supplied by Kabivitrum) by thrombin in the presence of hirudin. Thrombin concentration is 2 nM (typically 0.12 NIH units/ml), and hirudin can be assayed reproducibly at an approximate concentration range of 0.3 to 1 nM, using 296 uM substrate in 50 mM Tris buffer, 100 mM NaCl, pH 7.8, and 0.1% polyethylene glycol-6000 (PEG). PEG is included to inhibit binding of thrombin to the plastic surface of the microplate or cuvette; for the same reason, reaction vessels are pretreated with 1% PEG-20,000 prior to assay.
Hirudin inhibits the thrombin-mediated conversion of fibrinogen into a fibrin clot. […]

[4] = tested on: B16/F10 cells (murine melanoma); experiment: Cell adhesion assay, tumor cells binding to peptide-coated wells; format: cell-based; conditions: summary of Table 2
Description: One of the assays used to measure the activity of the laminin B1 peptide measures the binding of tumor cells containing the laminin receptor to the peptide immobilized on the surface of a culture tissue (Graf et al (1987) Cell 48:989-996). This assay is a convenient and sensitive method for routine measurement of laminin cell receptor binding and therefore a good indicator of laminin antagonist activity.
The laminin B1 -40 peptide, along with the previously described YIGSR and CDPGYIGSR peptides, were dissolved in phosphate-buffered saline (PBS) and were coated onto Falcon #3915 polystyrene 96-well plates at 37° C. for 60 min. The peptide solutions were removed, and the wells were washed twice with PBS. Non-specific cell binding was prevented by adding 200 ul 0.1% bovine serum albumin (BSA) (Sigma #4965) in PBS to the wells and incubating for 60 min at 37° C. The BSA was removed by washing twice with PBS. […] The optical density of the solutions was read on a Molecular Devices Corporation plate reader at a wavelength between 590 nm and 405 nm. Extrapolation of optical density to number of cells bound was done by comparison of readings to a standard curve obtained by incubating various numbers of cells in microtiter plate wells for 5 h (to allow firm attachment but no significant dividing), and washing and staining as described above.

Row | Molecule | pI (isoelectric point) [1] | Sp. Act. ([2]; pMF1, lacUV5/tac, intracellular) | Sp. Act. ([2]; IU, international units, pHIR20 lam-PL, intracellular) | Sp. Act. ([2]; IU, international units, pHIR21 tac, periplasmic secretion) | Sp. Act. ([3]; AT (antithrombin units), E. coli, pNP6ΔRI-CRM/HIR, intracellular (Example 4)) | specific activity ([3]; purified hirudin HV-1 standard) | binding of metastatic tumor cells compared with YIGSR or CDPGYIGSR (in words) [4]
1 | HV-1: hirudin variant 1, thrombin inhibitor of Hirudo medicinalis, produced from a synthetic DNA | 3.8 | 8,500 U/mg | 500 U/mg | 560 U/mg | 11,300 U/mg | greater than 10 antithrombin units per ug | 
2 | Pro1 -Cys Pro Asp Gly Pro Asp Ser Gly Arg Gln Phe Ala Arg Ser Cys Tyr Gln Asp Pro Val Thr Leu Gln Leu Ala X Val Cys Asp Pro Gly Tyr Ile Gly Ser Arg Cys Asp Asp-Y [LamB1 -40] | 3.65 |  |  |  |  |  | binds metastatic tumor cells more effectively
3 | B1 | approximately 7.8 |  |  |  |  |  | 
